From article PMC12623744 (Scientific Reports, 2025)
Where two headings read alike, the source gives them in different places.

Legend:
HVEM-His protein [1] = target: T1, HVEM-His protein (Homo sapiens, UniProt Q92956); assay: Spectral shift (SpS) affinity of peptides to HVEM; format: binding; conditions: spectral shift (Monolith X, 670/650 nm), 50 nM RED-tris-NTA labelled HVEM-His, ligand 2 µM to 6.1 pM, PBS-T pH 7.4 with 0.3 M NaCl, 25 °C; mean of triplicate; apparent, approximate value only
T1 construct: purchased ACROBiosystems
T1 sequence (Q92956 39-283): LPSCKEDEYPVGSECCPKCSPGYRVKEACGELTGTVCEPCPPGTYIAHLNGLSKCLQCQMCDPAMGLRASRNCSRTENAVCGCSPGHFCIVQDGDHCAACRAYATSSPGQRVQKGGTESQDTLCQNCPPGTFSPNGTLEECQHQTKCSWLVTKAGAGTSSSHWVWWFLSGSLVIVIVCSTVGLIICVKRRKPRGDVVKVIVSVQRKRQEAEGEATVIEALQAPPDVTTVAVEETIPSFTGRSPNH
Description: Based on the computer analyses conducted for the designed peptides in complex with the HVEM, five compounds – peptides light1, light2, light3, light4, and light3_E178L were selected for experimental validation and their affinity to HVEM was evaluated using SpS.Fluorescence intensity was measured at 670 and 650 nm (Figure S4). […] Due to the fact that peptides at higher concentrations aggregated, it was not possible to fully determine the Kd. Therefore, only the apparent Kd values were determined and were used for HVEM binding strength comparison. Note that apparent Kd is only approximate value and should be used only for qualitative comparison.
SpS experiments were conducted using the Monolith X instrument (Nanotemper, Munich, Germany). Protein labelling was performed using the His-Tag Labeling Kit RED-tris-NTA 2nd Generation (Nanotemper, Munich, Germany). To prepare the fluorescent dye solution at concentration 0.1 µM, 2 µL of a 5 µM dye stock was diluted in 98 µL of deionized water. […] The mixtures were loaded into Monolith X-compatible capillary tubes, and fluorescence ratios (670/650 nm) were measured at 40% excitation power and average IR laser power at a temperature of 25 °C. Data were analyzed using MO.Control 2 software (version 2.5.4, NanoTemper, Munich, Germany). […]

HVEM-His protein [2] = target: T1, HVEM-His protein; conditions: SpS technique; previously determined by the authors; read-out: Kd of LIGHT binding to HVEM; cited from earlier work
HVEM = target: HVEM; parameters: method as in 2 sources, ref 11 = [11]; PMID 25087510; doi:10.1016/j.str.2014.06.013; 11. Liu W Mechanistic basis for functional promiscuity in the TNF and TNF receptor superfamilies: structure of the LIGHT:DcR3 assembly Structure 2014 22 1252 10.1016/j.str.2014.06.013 25087510 PMC4163 ||| ref 41 = [41]; PMID 20175993; doi:10.1016/j.bbrc.2010.02.119; 41. Morishige T Creation of a lysine-deficient LIGHT mutant with the capacity for site-specific pegylation and low affinity for a decoy receptor Biochem. Biophys. Res. Commun. 2010 393 888 893 10.1016; conditions: other research group, read-out: Kd of HVEM/LIGHT complex, cited from earlier work
LIGHT protein = LIGHT protein (UniProt O43557 1-240); assay: spectral shift (SpS); Monolith X; HVEM-His labelled with His-Tag Labeling Kit RED-tris-NTA 2nd Generation, final 50 nM; peptides 2 µM to 6.1 pM; PBS-T (0.05% Tween-20, 0.3 M NaCl, pH 7.4); fluorescence ratio 670/650 nm; 25 °C; apparent Kd (peptides aggregated at higher concentrations); conditions: both partners purified

B1: LIGHT: LIGHT protein, TNFSF ligand of HVEM (protein)
chain: MEESVVRPSVFVVDGQTDIPFTRLGRSHRRQSCSVARVGLGLLLLLMGAGLAVQGWFLLQLHWRLGEMVTRLPDGPAGSWEQLIQERRSHEVNPAAHLTGANSSLTGSGGPLLWETQLGLAFLRGLSYHDGALVVTKAGYYYIYSKVQLGGVGCPLGLASTITHGLYKRTPRYPEELELLVSQQSPCGRATSSSRVWWDSSFLGGVVHLEAGEKVVVRVLDERLVRLRDGTRSYFGAFMV
Kd (HVEM-His protein [1]): 920 nM | Kd (HVEM-His protein [2]): 920 nM | Kd (HVEM; ref 11): 18.7 nM | Kd (HVEM; ref 41): 1.5 nM

B2: HVEM-His protein (receptor, UniProt Q92956 39-202, looked up)
chain: LPSCKEDEYPVGSECCPKCSPGYRVKEACGELTGTVCEPCPPGTYIAHLNGLSKCLQCQMCDPAMGLRASRNCSRTENAVCGCSPGHFCIVQDGDHCAACRAYATSSPGQRVQKGGTESQDTLCQNCPPGTFSPNGTLEECQHQTKCSWLVTKAGAGTSSSHWV
modifications: labelled with RED-tris-NTA 2nd Generation dye on the His tag (spectral shift only)
notes: Herpes virus entry mediator (HVEM); No catalogue number printed; also called herpes virus entry mediator; source: bought: ACROBiosystems
Kd (LIGHT protein): 920 nM
